In patent US20110091994A1, “Methods for Screening Compounds for Treating and/or Preventing an Hepatitis C Virus Infection” (priority 2008, published 2011):
Where two headings read alike, the source gives them in different places.

How the values were obtained:
[1] = tested on: HCV ORFs (Gal4-DB fusions); assay type: binding, HCV genotype 1b, isolate con1; conditions: human protein listed by gene symbol; the value names the HCV protein it interacts with
[2] = biological target: T1, HCV ORFs (Gal4-DB fusions) (Hepatitis C virus genotype 1b, UniProt Q9WMX2); assay type: binding, HCV genotype 1b, isolate con1; conditions: human protein as prey
T1 construct: expressed in transfected cells; host or cells: Saccharomyces cerevisiae MAV203 (IMAP1) / AH109 (IMAP2)

HCV proteins = biological target: T2, HCV proteins (Hepatitis C virus genotype 1b, UniProt Q9WMX2); assay: Validation by Y2H pairwise matrices; assay type: binding;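 further: yeast two-hybrid pairwise tests of interactions first found in Y2H screens of HCV bait proteins against human cDNA libraries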
T2 construct: expressed in transfected cells
Experimental: A comprehensive interactome map between HCV and cellular proteins was generated by Y2H screens. Twenty seven constructs encoding full-length HCV mature proteins or discrete domains were cloned using a recombination-based cloning system (10) (FIG. 6). Four independent screens were performed with each HCV bait protein, probing two distinct human cDNA libraries (Supplementary Methods). […] Two validation methods were used to assess the confidence of the IMAP Y2H dataset.

[3] = validation of interaction with HCV protein NS3
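Wherever IMAP Y2H IMAP1 (number of IST) is given: yeast two-hybrid screens using HCV genotype 1b proteins fused to Gal4-DB as baits against prey cDNA libraries from human spleen and foetal brain, IMAP1 via transformation and IMAP2 via mating.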
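Wherever Interaction with viral protein is given: yeast two-hybrid screens using HCV genotype 1b proteins fused to Gal4-DB as baits against prey cDNA libraries from human spleen and foetal brain, IMAP1 via transformation and IMAP2 via mating.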

Row | Molecule | Interaction with viral protein [1] | IMAP Y2H IMAP1 (number of IST) ([2]; HCV protein NS3 as bait) | Y2H matrices (HCV proteins; [3]) | IMAP Y2H IMAP1 (number of IST) ([2]; HCV protein CORE as bait) | Y2H matrices (HCV proteins; validation of interaction with HCV protein CORE)
1 | SPOCK3 (protein, UniProt Q9BQ16 22-436, looked up) Testican-3: AAAAVAAAGGRSDGGNFLDDKQWLTTISQYDKEVGQWNKFRDEVEDDYFRTWSPGKPFDQALDPAKDPCLKMKCSRHKVCIAQDSQTAVCISHRRLTHRMKEAGVDHRQWRGPILSTCKQCPVVYPSPVCGSDGHTYSFQCKLEYQACVLGKQISVKCEGHCPCPSDKPTSTSRNVKRACSDLEFREVANRLRDWFKALHESGSQNKKTKTLLRPERSRFDTSILPICKDSLGWMFNRLDTNYDLLLDQSELRSIYLDKNEQCTKAFFNSCDTYKDSLISNNEWCYCFQRQQDPPCQTELSNIQKRQGVKKLLGQYIPLCDEDGYYKPTQCHGSVGQCWCVDRYGNEVMGSRINGVADCAIDFEISGDFASGDFHEWTDDEDDEDDIMNDEDEIEDDDEDEGDDDDGGDDHDVYI | NS3 | 1 | + |  | 
2 | PLSCR1 (protein, UniProt O15162 1-318, looked up) Phospholipid scramblase 1: MDKQNSQMNASHPETNLPVGYPPQYPPTAFQGPPGYSGYPGPQVSYPPPPAGHSGPGPAGFPVPNQPVYNQPVYNQPVGAAGVPWMPAPQPPLNCPPGLEYLSQIDQILIHQQIELLEVLTGFETNNKYEIKNSFGQRVYFAAEDTDCCTRNCCGPSRPFTLRIIDNMGQEVITLERPLRCSSCCCPCCLQEIEIQAPPGVPIGYVIQTWHPCLPKFTIQNEKREDVLKISGPCVVCSCCGDVDFEIKSLDEQCVVGKISKHWTGILREAFTDADNFGIQFPLDLDVKMKAVMIGACFLIDFMFFESTGSQEQKSGVW | CORE |  |  | 1 | +
3 | SPON1 (protein, UniProt Q9HCB6 29-807, looked up) Spondin-1: FSDETLDKVPKSEGYCSRILRAQGTRREGYTEFSLRVEGDPDFYKPGTSYRVTLSAAPPSYFRGFTLIALRENREGDKEEDHAGTFQIIDEEETQFMSNCPVAVTESTPRRRTRIQVFWIAPPAGTGCVILKASIVQKRIIYFQDEGSLTKKLCEQDSTFDGVTDKPILDCCACGTAKYRLTFYGNWSEKTHPKDYPRRANHWSAIIGGSHSKNYVLWEYGGYASEGVKQVAELGSPVKMEEEIRQQSDEVLTVIKAKAQWPAWQPLNVRAAPSAEFSVDRTRHLMSFLTMMGPSPDWNVGLSAEDLCTKECGWVQKVVQDLIPWDAGTDSGVTYESPNKPTIPQEKIRPLTSLDHPQSPFYDPEGGSITQVARVVIERIARKGEQCNIVPDNVDDIVADLAPEEKDEDDTPETCIYSNWSPWSACSSSTCDKGKRMRQRMLKAQLDLSVPCPDTQDFQPCMGPGCSDEDGSTCTMSEWITWSPCSISCGMGMRSRERYVKQFPEDGSVCTLPTEETEKCTVNEECSPSSCLMTEWGEWDECSATCGMGMKKRHRMIKMNPADGSMCKAETSQAEKCMMPECHTIPCLLSPWSEWSDCSVTCGKGMRTRQRMLKSLAELGDCNEDLEQVEKCMLPECPIDCELTEWSQWSECNKSCGKGHVIRTRMIQMEPQFGGAPCPETVQRKKCRIRKCLRNPSIQKLRWREARESRRSEQLKEESEGEQFPGCRMRPWTAWSECTKLCGGGIQERYMTVKKRFKSSQFTSCKDKKEIRACNVHPC | NS3 | 1 | + |  | 
4 | SRPX2 (protein, UniProt O60687 24-465, looked up) Sushi repeat-containing …: TWYAGSGYYPDESYNEVYAEEVPQAPALDYRVPRWCYTLNIQDGEATCYSPKGGNYHSSLGTRCELSCDRGFRLIGRRSVQCLPSRRWSGTAYCRQMRCHALPFITSGTYTCTNGVLLDSRCDYSCSSGYHLEGDRSRICMEDGRWSGGEPVCVDIDPPKIRCPHSREKMAEPEKLTARVYWDPPLVKDSADGTITRVTLRGPEPGSHFPEGEHVIRYTAYDRAYNRASCKFIVKVQVRRCPTLKPPQHGYLTCTSAGDNYGATCEYHCDGGYDRQGTPSRVCQSSRQWSGSPPICAPMKINVNVNSAAGLLDQFYEKQRLLIISAPDPSNRYYKMQISMLQQSTCGLDLRHVTIIELVGQPPQEVGRIREQQLSANIIEELRQFQRLTRSYFNMVLIDKQGIDRDRYMEPVTPEEIFTFIDDYLLSNQELTQRREQRDICE | NS3 | 1 | + |  | 
5 | SLIT3 (protein, UniProt O75094 34-1523, looked up) Slit homolog 3 protein: CPTKCTCSAASVDCHGLGLRAVPRGIPRNAERLDLDRNNITRITKMDFAGLKNLRVLHLEDNQVSVIERGAFQDLKQLERLRLNKNKLQVLPELLFQSTPKLTRLDLSENQIQGIPRKAFRGITDVKNLQLDNNHISCIEDGAFRALRDLEILTLNNNNISRILVTSFNHMPKIRTLRLHSNHLYCDCHLAWLSDWLRQRRTVGQFTLCMAPVHLRGFNVADVQKKEYVCPAPHSEPPSCNANSISCPSPCTCSNNIVDCRGKGLMEIPANLPEGIVEIRLEQNSIKAIPAGAFTQYKKLKRIDISKNQISDIAPDAFQGLKSLTSLVLYGNKITEIVKGLFDGLVSLQLLLLNANKINCLRVNTFQDLQNLNLLSLYDNKLQTISKGLFAPLQSIQTLHLAQNPFVCDCHLKWLADYLQDNPIETSGARCSSPRRLANKRISQIKSKKFRCSGSEDYRSRFSSECFMDLVCPEKCRCEGTIVDCSNQKLVRIPSHLPEYVTDLRLNDNEVSVLEATGIFKKLPNLRKINLSNNKIKEVREGAFDGAASVQELMLTGNQLETVHGRVFRGLSGLKTLMLRSNLIGCVSNDTFAGLSSVRLLSLYDNRITTITPGAFTTLVSLSTINLLSNPFNCNCHLAWLGKWLRKRRIVSGNPRCQKPFFLKEIPIQDVAIQDFTCDGNEESSCQLSPRCPEQCTCMETVVRCSNKGLRALPRGMPKDVTELYLEGNHLTAVPRELSALRHLTLIDLSNNSISMLTNYTFSNMSHLSTLILSYNRLRCIPVHAFNGLRSLRVLTLHGNDISSVPEGSFNDLTSLSHLALGTNPLHCDCSLRWLSEWVKAGYKEPGIARCSSPEPMADRLLLTTPTHRFQCKGPVDINIVAKCNACLSSPCKNNGTCTQDPVELYRCACPYSYKGKDCTVPINTCIQNPCQHGGTCHLSDSHKDGFSCSCPLGFEGQRCEINPDDCEDNDCENNATCVDGINNYVCICPPNYTGELCDEVIDHCVPELNLCQHEAKCIPLDKGFSCECVPGYSGKLCETDNDDCVAHKCRHGAQCVDTINGYTCTCPQGFSGPFCEHPPPMVLLQTSPCDQYECQNGAQCIVVQQEPTCRCPPGFAGPRCEKLITVNFVGKDSYVELASAKVRPQANISLQVATDKDNGILLYKGDNDPLALELYQGHVRLVYDSLSSPPTTVYSVETVNDGQFHSVELVTLNQTLNLVVDKGTPKSLGKLQKQPAVGINSPLYLGGIPTSTGLSALRQGTDRPLGGFHGCIHEVRINNELQDFKALPPQSLGVSPGCKSCTVCKHGLCRSVEKDSVVCECRPGWTGPLCDQEARDPCLGHRCHHGKCVATGTSYMCKCAEGYGGDLCDNKNDSANACSAFKCHHGQCHISDQGEPYCLCQPGFSGEHCQQENPCLGQVVREVIRRQKGYASCATASKVPIMECRGGCGPQCCQPTRSKRRKYVFQCTDGSSFVEEVERHLECGCLACS | NS3 | 4 | + |  | 
6 | SSX2IP (protein, UniProt Q9Y2D8 1-614, looked up) Afadin- and …: MGDWMTVTDPGLSSESKTISQYTSETKMSPSSLYSQQVLCSSIPLSKNVHSFFSAFCTEDNIEQSISYLDQELTTFGFPSLYEESKGKETKRELNIVAVLNCMNELLVLQRKNLLAQENVETQNLKLGSDMDHLQSCYSKLKEQLETSRREMIGLQERDRQLQCKNRNLHQLLKNEKDEVQKLQNIIASRATQYNHDMKRKEREYNKLKERLHQLVMNKKDKKIAMDILNYVGRADGKRGSWRTGKTEARNEDEMYKILLNDYEYRQKQILMENAELKKVLQQMKKEMISLLSPQKKKPRERVDDSTGTVISDVEEDAGELSRESMWDLSCETVREQLTNSIRKQWRILKSHVEKLDNQVSKVHLEGFNDEDVISRQDHEQETEKLELEIQQCKEMIKTQQQLLQQQLATAYDDDTTSLLRDCYLLEEKERLKEEWSLFKEQKKNFERERRSFTEAAIRLGLERKAFEEERASWLKQQFLNMTTFDHQNSENVKLFSAFSGSSDWDNLIVHSRQPQKKPHSVSNGSPVCMSKLTKSLPASPSTSDFCQTRSCISEHSSINVLNITAEEIKPNQVGGECTNQKWSVASRPGSQEGCYSGCSLSYTNSHVEKDDLP | NS3 | 3 | + |  | 
7 | SNX4 (protein, UniProt O95219 1-450, looked up) Sorting nexin-4: MEQAPPDPERQLQPAPLEPLGSPDAGLGAAVGKEAEGAGEESSGVDTMTHNNFWLKKIEISVSEAEKRTGRNAMNMQETYTAYLIETRSVEHTDGQSVLTDSLWRRYSEFELLRSYLLVYYPHIVVPPLPEKRAEFVWHKLSADNMDPDFVERRRIGLENFLLRIASHPILCRDKIFYLFLTQEGNWKETVNETGFQLKADSRLKALNATFRVKNPDKRFTDLKHYSDELQSVISHLLRVRARVADRLYGVYKVHGNYGRVFSEWSAIEKEMGDGLQSAGHHMDVYASSIDDILEDEEHYADQLKEYLFYAEALRAVCRKHELMQYDLEMAAQDLASKKQQCEELVTGTVRTFSLKGMTTKLFGQETPEQREARIKVLEEQINEGEQQLKSKNLEGREFVKNAWADIERFKEQKNRDLKEALISYAVMQISMCKKGIQVWTNAKECFSKM | NS3 | 1 | + |  | 
